Results from the supplement of paper PMC12764529.
± gives the half width of the 95% confidence interval.

Assays:
[1] = folding stability dG unfold (combined trypsin and chymotrypsin); higher = more stable
Method in brief: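 Digests were run with trypsin and chymotrypsin at 11 concentrations in threefold dilutions, plus a no-protease condition, on designed mini-proteins in a PA-tagged cDNA display construct. The mini-proteins were under 80 residues, had no cysteine, and were kept only when AlphaFold2 dimer inter-PAE was above 15. After sequencing, Bayesian fitting of the counts gave K50, from which unfolding free energy was derived against a sequence-predicted unfolded-state K50 and a shared folded-state K50, per protease or combined.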

[2] = folding stability dG unfold from chymotrypsin proteolysis; higher = more stable
Experimental: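 Folding stability of de novo designed mini-proteins (<80 aa, no Cys; designed by TrROS, TrMRF, ProteinMPNN and the joint model) was measured by cDNA display proteolysis with trypsin and chymotrypsin. Each protease was used at 11 concentrations in a threefold dilution series plus a no-protease condition. K50 was inferred by Bayesian fitting of sequencing counts, and dG unfold was derived against a sequence-predicted unfolded-state K50 (Tsuboyama et al. method). Sequences shown include variable-length N-terminal GS-type padding (SAGGSAGG...) inside a display construct carrying a PA tag. Rows were kept only if the AF2 dimer inter-PAE was >15, to exclude likely homo-oligomers.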

| Sequence | folding stability dG unfold [1] [kcal/mol] | folding stability dG unfold [2] [kcal/mol] |
| --- | --- | --- |
| SAGAVSTFENSNPSISLEELKEKIEEKLGIELVELKKVEDVPGGLKYEIVVPKIKGEKPFSAEEIAKLLSAG [r5_550_JUSTAS] | -0.434 ± 0.56 | -0.0356 ± 0.5 |
| SAGDISPSDPVTVRVEVEKDPNSKSTLVRVDEETPTGRRLERRIPADGPVVVTEREPASGATRVTVEPASAG [r5_55_JUSTAS] | -0.563 ± 0.11 | 0.00901 ± 0.071 |
| SAGDWIREAIKKAGYDNVEIEEIQPNPNGGVSIVIQPSPGMPREQQRRAQEEIVDALREESPDFKIHIHSAG [r5_101_TrROS] | 0.192 ± 0.26 | 0.584 ± 0.087 |
| SAGEGSRSPGVVLHVTTPTEPLVVREPVAPDEDPEAVLERLAAEVRAALGPDTTVSGEVLSPAELARAASAG [r5_583_JUSTAS] | -0.738 ± 0.23 | -0.465 ± 0.18 |
| SAGEYKVEEKDGKLYVTYPNGEKKEVEVKPAPPPVVTIKVKSVEELKALAEELNLEITEISEDTVVVKFSAG [r5_328_TrROS_Hall] | -0.643 ± 0.62 | 0.0799 ± 0.38 |
| SAGGAGQRVVLSSDKSLEDLEKLREENPDVSIEVTEINKLEPVKPENGGLEEVPSEIVAELTPGERRSAGGS [r8_172_JUSTAS] | -0.0394 ± 0.076 | 0.401 ± 0.051 |
| SAGGAIGPEEAERLAQEIADRLAAEFREAEPDVEVEVEAEVFPPEGVIRVRPRLPDGRLLAEVTFPVGSAGG [r13_247_TrMRF] | 0.0873 ± 0.067 | 0.498 ± 0.041 |
| SAGGDKLGKPLGGKPVTFDISKEELSYNPSNGTWSKSVVTTPRTVFYPPDAEPDPAVFASGAGSVTLASAGG [r13_753_JUSTAS] | -0.184 ± 0.077 | 0.281 ± 0.091 |
| SAGGEEPKRKTVEVPAGQPISELLDALKQYDEVQIRMGNGEEHEIPPNDPPDLEDLPLPPGNTFEIEVSAGG [r13_399_TrROS] | < -1 | -0.126 ± 0.12 |
| SAGGFKIERERDPDNGIRKIEFRFPDNGYRVKATINPDNDKIHIWGPNPAIREALPELGITNVEVEPWSAGG [r13_511_TrROS] | < -1 | -0.811 ± 0.78 |
| SAGGGAMLVGETTTSKWIEKTIRNENGEVETKKVKVTTKPVTYKLPDGTLATETKVTIIYPDGSTKEESAGG [r13_113_JUSTAS] | -0.181 ± 0.31 | 0.103 ± 0.21 |
| SAGGGMEEVAKKLGVPEDARLEVLKVERYYYTREVRDPLFEEGKPVGEKIIPRPYYSEKVDYKLFDKPSAGG [r13_482_JUSTAS] | < -1 | -0.288 ± 0.32 |
| SAGGGMKTSKVSTSTTTTTVPGTGAPVTVEVTSTTTTFGPNGPAVVTTTSLTYDEAGTPTTTTTTTLSAGGS [r16_200_JUSTAS] | -0.133 ± 0.13 | 0.46 ± 0.11 |
| SAGGGSMVEKTISTTDPKYVKILKKLEEAPEDEVVTIKEPNKDIEVLSFDKVDDNYKLLMKLPPSILSAGGS [r16_404_JUSTAS] | -0.773 ± 0.46 | -0.454 ± 0.38 |
| SAGGGSMVIPVSPEEKEAALKLLEALPSKDVKVTVTDPATGTTTTLTPEEAKKLIEATDTPLVLTLSSAGGS [r16_263_JUSTAS] | 3.42 ± 0.16 | 2.92 ± 0.08 |
| SAGGISVEIYPPNGKKVELEGDTIPELMDKFPPGGNYVIKIEQPHVNPGNGKKQPMEMEFRVPPDDFSAGGS [r16_806_TrROS] | -0.697 ± 0.33 | -0.202 ± 0.23 |
| SAGGKARITRIEAEPDPLRVEVEVELPDGRKVRAVAVVPPGEGGVARVRTAVDFGEGVVPAADIEIPPSAGG [r13_728_TrMRF] | 0.236 ± 0.052 | 0.704 ± 0.016 |
| SAGGKKVIIPFKSPEQVKDWLENAPPGHDKVEIFSPETGYMAEFEVDPKENKIKEIKWERFDPDDGMFSAGG [r13_945_TrROS] | -0.372 ± 0.46 | 0.0373 ± 0.28 |
| SAGGMGVRVEEKVLATSESSTPDGTPVTFTETETKITLPPGTVVTVKKLLETGGGGRKVLEETTSPLASAGG [r13_898_JUSTAS] | -0.295 ± 0.14 | 0.092 ± 0.039 |
| SAGGMITLEEPELDPSRPVTRVKVLTEIPAPGGVPVVVETTYTDTRAPGDPSVTVVTSTTTVVPGAAGSAGG [r13_131_JUSTAS] | -0.834 ± 0.27 | -0.0242 ± 0.055 |
| SAGGMKIEKTPVKIEKEGEDTVIEYKETEYLPDGTVKEYEGILRIPKNTGKITTLEKKLLSTEPILGSAGGS [r16_729_JUSTAS] | < -1 | -0.377 ± 0.3 |
